The text below walks through data of patent US20160122418A1 (ARIDIS PHARMACEUTICALS, published 2016).

Experiment [1] concerns the target F protein of clinical RSV isolate #1 (RSV clinical isolate #1). The experiment is described as follows: cell-based or functional assay.
Experiment [2] concerns the target T1, F protein of palivizumab-resistant clinical RSV isolate #20 (RSV clinical isolate #20, UniProt P11209 26-574).
T1 chain: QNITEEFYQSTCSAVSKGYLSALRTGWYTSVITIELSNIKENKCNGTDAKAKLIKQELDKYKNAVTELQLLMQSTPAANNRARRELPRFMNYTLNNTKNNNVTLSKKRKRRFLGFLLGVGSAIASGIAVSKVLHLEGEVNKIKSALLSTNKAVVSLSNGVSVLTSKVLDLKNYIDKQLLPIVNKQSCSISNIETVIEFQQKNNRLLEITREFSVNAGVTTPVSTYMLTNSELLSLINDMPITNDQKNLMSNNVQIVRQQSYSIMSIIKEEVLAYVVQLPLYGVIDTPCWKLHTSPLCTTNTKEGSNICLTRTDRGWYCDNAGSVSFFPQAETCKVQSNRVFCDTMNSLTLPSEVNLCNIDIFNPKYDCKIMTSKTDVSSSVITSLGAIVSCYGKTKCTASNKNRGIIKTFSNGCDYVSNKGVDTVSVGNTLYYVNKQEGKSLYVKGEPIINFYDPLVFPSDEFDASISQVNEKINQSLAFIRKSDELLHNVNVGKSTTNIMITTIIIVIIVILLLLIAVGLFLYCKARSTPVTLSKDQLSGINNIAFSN
The experiment is described as follows: cell-based or functional assay.

Experiment [3] concerns the target T2, Human RSV (A2) Fusion glycoprotein RSV F protein, Sino Biological Inc. (Human RSV (A2), UniProt P03420 26-529).
T2 construct: Bought protein; also called purified RSV F protein; recombinant human RSV F protein
Nature of the experiment: SPR, Biacore 2000, F protein amine-coupled to CM5 chip, antibody as analyte, Langmuir 1:1 fit. A general note: Surface plasmon resonance follows binding to a sensor surface in real time, without labels.

For experiment [4], the target named is T3, F protein on intact RSV particles (Example 10, strain or isolate not stated) (RSV, strain ).
T3 construct: also called RSV viral particles
Nature of the experiment: competition ELISA; RSV particles pre-incubated with inhibiting mAb at 20 µg/mL; competitor (coating mAb): AR201. For orientation: An ELISA detects its analyte on a solid surface through an enzyme-linked reagent.

Experiment [5] has as its target T3, F protein on intact RSV particles …. Nature of the experiment: competition ELISA; RSV particles pre-incubated with inhibiting mAb at 20 µg/mL; competitor (coating mAb): palivizumab.
Method: After incubation for one hour at 4° C., plates were washed and polyclonal rabbit-anti-RSV-HRP labeled antisera was added to each well. Bound viral particles were detected by colorimetric measurement. Maximum binding of RSV to the immobilized antibody in the presence of the competitor antibody was determined relative to binding in the presence of the monoclonal human IgG control antibody.
Experiment [6] deals with T2, Human RSV (A2) Fusion glycoprotein RSV …. The experiment is described as follows: ELISA, serial dilutions of purified AR201 on plates coated 'as described above' (RSV-EIA antigen by the legend of FIG. 6, or purified F protein); anti-human IgG-HRP.

B1: AR201 (antibody, V domains shown)
VH: LVQLRESGPGLVKPSQTLSLTCSVSGASINLYDYFWGWIRQAPGRGPEWIGYISGSTYYNPSLKRRATISVDTSKSQFFLELTSVTAADTAVYYCARDVGWGPQYYYGLDVWGQGTTVTVSS
VL: DLVLTQSPGTLSLSPGERATLSCRASHSVQSTSLAWYQQKRGQAPRLLIYGGSSRVTGIPDRFSGSGSGTDFTLTISRLEPEDFAVYYCQQSDRSPPITFGQGTRLEMK
notes: Recombinant human IgG1 made in HEK293T cells; kappa light chain cloned whole; The claims' numbering is used here; also called KBRV201; human monoclonal antibody AR201
As to B1, the “IC50 of neutralization, infectivity assay on Hep2 cells” value in experiment [1] stood at 1700 nM; in experiment [2], 1710 nM. In addition, in experiment [3], the equilibrium dissociation constant (Kd) was found to be 0.058 nM. This molecule also yielded a koff in experiment [3] of 2.7e-05 s⁻¹. This molecule came in with an association rate constant (kon) in experiment [3] of 470000 M⁻¹ s⁻¹. Moreover, the results for the “% binding of RSV to the coating mAb relative to control IgG” value in experiment [4] and in experiment [5] were 22.5% and 40.8%, respectively. In addition, in experiment [6], the 50% effective concentration (EC50) amounted to 0.103 nM.

In general, Kd refers to the equilibrium constant for the complex coming apart. A low value points to higher affinity. What is called koff is a measure of how fast the partners let go of each other. A higher koff goes with fast dissociation. The term kon denotes a measure of how fast the partners come together. Broadly, the EC50 is the concentration giving half of the maximal effect. Low readings indicate a more potent agent, high ones a less potent agent.
